T1: recombinant GST fusion of the Tie-2 intracellular kinase domain
T1 chain: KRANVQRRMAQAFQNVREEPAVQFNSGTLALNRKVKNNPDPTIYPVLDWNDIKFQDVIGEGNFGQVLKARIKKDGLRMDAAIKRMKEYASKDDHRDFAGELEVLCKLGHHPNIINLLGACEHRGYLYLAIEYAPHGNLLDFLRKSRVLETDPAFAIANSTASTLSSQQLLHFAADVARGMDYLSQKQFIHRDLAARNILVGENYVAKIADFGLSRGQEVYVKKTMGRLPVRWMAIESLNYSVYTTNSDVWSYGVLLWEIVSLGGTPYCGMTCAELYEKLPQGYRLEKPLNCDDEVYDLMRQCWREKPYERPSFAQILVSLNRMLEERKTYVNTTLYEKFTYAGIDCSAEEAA


How the values were obtained:
[1] = target: full length human Tie-2 receptor
[2] = target: full length human VEGF receptor type 2 (VEGFR2)
full length human VEGF receptor type 2 (VEGFR2), sequence (chain, as listed by the source): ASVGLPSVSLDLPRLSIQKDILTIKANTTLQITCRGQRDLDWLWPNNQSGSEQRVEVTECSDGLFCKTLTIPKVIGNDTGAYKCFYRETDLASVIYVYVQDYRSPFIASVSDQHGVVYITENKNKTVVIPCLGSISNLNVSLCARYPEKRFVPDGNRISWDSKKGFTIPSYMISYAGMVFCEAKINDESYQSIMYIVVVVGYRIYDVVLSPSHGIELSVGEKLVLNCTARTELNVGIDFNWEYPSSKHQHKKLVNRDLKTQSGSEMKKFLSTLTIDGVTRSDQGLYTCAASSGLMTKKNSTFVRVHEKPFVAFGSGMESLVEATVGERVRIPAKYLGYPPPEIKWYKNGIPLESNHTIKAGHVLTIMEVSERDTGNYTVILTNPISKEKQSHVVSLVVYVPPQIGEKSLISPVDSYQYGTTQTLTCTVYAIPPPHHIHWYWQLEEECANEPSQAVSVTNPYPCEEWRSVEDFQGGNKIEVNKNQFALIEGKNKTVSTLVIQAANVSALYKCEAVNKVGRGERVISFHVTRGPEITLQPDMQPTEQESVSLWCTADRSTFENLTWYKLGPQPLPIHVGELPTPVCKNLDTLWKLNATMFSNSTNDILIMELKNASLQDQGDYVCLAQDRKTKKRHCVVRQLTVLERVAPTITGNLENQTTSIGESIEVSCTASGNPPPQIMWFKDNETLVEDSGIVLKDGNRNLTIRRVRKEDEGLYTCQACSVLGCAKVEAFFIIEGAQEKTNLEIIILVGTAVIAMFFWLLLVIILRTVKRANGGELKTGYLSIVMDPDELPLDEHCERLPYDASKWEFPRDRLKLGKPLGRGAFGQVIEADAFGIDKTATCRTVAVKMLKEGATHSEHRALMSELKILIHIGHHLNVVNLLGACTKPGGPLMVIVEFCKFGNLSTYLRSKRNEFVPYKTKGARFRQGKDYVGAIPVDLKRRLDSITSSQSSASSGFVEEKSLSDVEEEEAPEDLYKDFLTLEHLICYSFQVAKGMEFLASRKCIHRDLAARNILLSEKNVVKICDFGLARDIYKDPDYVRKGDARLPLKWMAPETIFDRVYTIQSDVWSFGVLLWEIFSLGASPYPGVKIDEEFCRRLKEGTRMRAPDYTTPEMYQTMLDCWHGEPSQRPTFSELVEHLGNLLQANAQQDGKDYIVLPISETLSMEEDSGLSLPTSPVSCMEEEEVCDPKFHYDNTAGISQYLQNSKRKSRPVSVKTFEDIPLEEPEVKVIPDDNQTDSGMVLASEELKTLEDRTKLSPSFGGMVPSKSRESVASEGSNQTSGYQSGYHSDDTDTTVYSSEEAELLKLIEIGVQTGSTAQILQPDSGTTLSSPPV

[3] = target: T1, recombinant GST fusion of the Tie-2 …
[4] = target: recombinant GST fusion of the VEGFR2 intracellular kinase domain
recombinant GST fusion of the VEGFR2 intracellular kinase domain, sequence (chain, as listed by the source): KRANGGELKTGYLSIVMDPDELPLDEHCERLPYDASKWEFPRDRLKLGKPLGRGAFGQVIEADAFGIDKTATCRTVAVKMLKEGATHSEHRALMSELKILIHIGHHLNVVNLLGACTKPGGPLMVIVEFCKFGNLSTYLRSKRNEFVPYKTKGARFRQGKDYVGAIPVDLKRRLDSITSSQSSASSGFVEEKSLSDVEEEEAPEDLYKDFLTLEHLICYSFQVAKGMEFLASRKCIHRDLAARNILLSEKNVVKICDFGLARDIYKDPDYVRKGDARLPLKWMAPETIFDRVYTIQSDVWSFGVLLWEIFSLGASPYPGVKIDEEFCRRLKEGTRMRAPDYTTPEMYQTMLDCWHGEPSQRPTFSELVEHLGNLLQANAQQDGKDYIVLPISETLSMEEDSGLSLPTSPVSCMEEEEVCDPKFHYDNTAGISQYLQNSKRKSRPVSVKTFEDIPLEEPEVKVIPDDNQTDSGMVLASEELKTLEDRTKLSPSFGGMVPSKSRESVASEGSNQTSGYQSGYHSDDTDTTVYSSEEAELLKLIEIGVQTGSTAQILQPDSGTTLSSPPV

Protein | ligand-induced phosphorylation of the endogenous receptor (anti-phosphotyrosine western blot of immunoprecipitated receptor) in Ang1 stimulated HUVECs [1] | ligand-induced phosphorylation of the endogenous receptor (anti-phosphotyrosine western blot of immunoprecipitated receptor) in VEGFA stimulated HUVECs [2] | anti-phosphotyrosine western blotting of the bead-bound autophosphorylated kinase domain after 2 hours at 37 C with increasing amounts of recombinant HPTPbeta [3] | anti-phosphotyrosine western blotting of the bead-bound autophosphorylated kinase domain after 2 hours at 37 C with increasing amounts of recombinant HPTPbeta [4]
full length HPTPbeta protein (splice variant lacking FNIII repeat 5) (protein) EPERCNFTLAESKASSHSVSIQWRILGSPCNFSLIYSSDTLGAALCPTFRIDNTTYGCNLQDLQAGTIYNFKIISLDEERTVVLQTDPLPPARFGVSKEKTTSTGLHVWWTPSSGKVTSYEVQLFDENNQKIQGVQIQESTSWNEYTFFNLTAGSKYNIAITAVSGGKRSFSVYTNGSTVPSPVKDIGISTKANSLLISWSHGSGNVERYRLMLMDKGILVHGGVVDKHATSYAFHGLTPGYLYNLTVMTEAAGLQNYRWKLVRTAPMEVSNLKVTNDGSLTSLKVKWQRPPGNVDSYNITLSHKGTIKESRVLAPWITETHFKELVPGRLYQVTVSCVSGELSAQKMAVGRTFPLAVLQLRVKHANETSLSIMWQTPVAEWEKYIISLADRDLLLIHKSLSKDAKEFTFTDLVPGRKYMATVTSISGDLKNSSSVKGRTVPAQVTDLHVANQGMTSSLFTNWTQAQGDVEFYQVLLIHENVVIKNESISSETSRYSFHSLKSGSLYSVVVTTVSGGISSRQVVVEGRTVPSSVSGVTVNNSGRNDYLSVSWLLAPGDVDNYEVTLSHDGKVVQSLVIAKSVRECSFSSLTPGRLYTVTITTRSGKYENHSFSQERTVPDKVQGVSVSNSARSDYLRVSWVHATGDFDHYEVTIKNKNNFIQTKSIPKSENECVFVQLVPGRLYSVTVTTKSGQYEANEQGNGRTIPEPVKDLTLRNRSTEDLHVTWSGANGDVDQYEIQLLFNDMKVFPPFHLVNTATEYRFTSLTPGRQYKILVLTISGDVQQSAFIEGFTVPSAVKNIHISPNGATDSLTVNWTPGGGDVDSYTVSAFRHSQKVDSQTIPKHVFEHTFHRLEAGEQYQIMIASVSGSLKNQINVVGRTVPASVQGVIADNAYSSYSLIVSWQKAAGVAERYDILLLTENGILLRNTSEPATTKQHKFEDLTPGKKYKIQILTVSGGLFSKEAQTEGRTVPAAVTDLRITENSTRHLSFRWTASEGELSWYNIFLYNPDGNLQERAQVDPLVQSFSFQNLLQGRMYKMVIVTHSGELSNESFIFGRTVPASVSHLRGSNRNTTDSLWFNWSPASGDFDFYELILYNPNGTKKENWKDKDLTEWRFQGLVPGRKYVLWVVTHSGDLSNKVTAESRTAPSPPSLMSFADIANTSLAITWKGPPDWTDYNDFELQWLPRDALTVFNPYNNRKSEGRIVYGLRPGRSYQFNVKTVSGDSWKTYSKPIFGSVRTKPDKIQNLHCRPQNSTAIACSWIPPDSDFDGYSIECRKMDTQEVEFSRKLEKEKSLLNIMMLVPHKRYLVSIKVQSAGMTSEVVEDSTITMIDRPPPPPPHIRVNEKDVLISKSSINFTVNCSWFSDTNGAVKYFTVVVREADGSDELKPEQQHPLPSYLEYRHNASIRVYQTNYFASKCAENPNSNSKSFNIKLGAEMESLGGKCDPTQQKFCDGPLKPHTAYRISIRAFTQLFDEDLKEFTKPLYSDTFFSLPITTESEPLFGAIEGVSAGLFLIGMLVAVVALLICRQKVSHGRERPSARLSIRRDRPLSVHLNLGQKGNRKTSCPIKINQFEGHFMKLQADSNYLLSKEYEELKDVGRNQSCDIALLPENRGKNRYNNILPYDATRVKLSNVDDDPCSDYINASYIPGNNFRREYIVTQGPLPGTKDDFWKMVWEQNVHNIVMVTQCVEKGRVKCDHYWPADQDSLYYGDLILQMLSESVLPEWTIREFKICGEEQLDAHRLIRHFHYTVWPDHGVPETTQSLIQFVRTVRDYINRSPGAGPTVVHCSAGVGRTGTFIALDRILQQLDSKDSVDIYGAVHDLRLHRVHMVQTECQYVYLHQCVRDVLRARKLRSEQENPLFPIYENVNPEYHRDPVYSRH | adenoviral overexpression of HPTPbeta in endothelial cells decreased in ligand-induced phosphorylation of the endogenous VEGFR2 and Tie-2 receptors | adenoviral overexpression of HPTPbeta in endothelial cells decreased in ligand-induced phosphorylation of the endogenous VEGFR2 and Tie-2 receptors |  | 
recombinant HPTPbeta catalytic domain (protein) GDRPLSVHLNLGQKGNRKTSCPIKINQFEGHFMKLQADSNYLLSKEYEELKDVGRNQSCDIALLPENRGKNRYNNILPYDATRVKLSNVDDDPCSDYINASYIPGNNFRREYIVTQGPLPGTKDDFWKMVWEQNVHNIVMVTQCVEKGRVKCDHYWPADQDSLYYGDLILQMLSESVLPEWTIREFKICGEEQLDAHRLIRHFHYTVWPDHGVPETTQSLIQFVRTVRDYINRSPGAGPTVVHCSAGVGRTGTFIALDRILQQLDSKDSVDIYGAVHDLRLHRVHMVQTECQYVYLHQCVRDVLRARKLRSEQHHHHHH |  |  | a dose dependent decrease in the phosphorylation of recombinant VEGFR2 and Tie-2 | a dose dependent decrease in the phosphorylation of recombinant VEGFR2 and Tie-2
